These results are taken from paper PMC8221199, “Semisynthetic ‘designer’ p53 sheds light on a phosphorylation–acetylation relay†”.

For series [1], the target named is T1, p53rec (UniProt P04637 1-393). The series is described as follows: competition; 1 uM competitor vs 20 nM labelled GADD45; EMSA: 0.4 uM p53 variant (0.1 uM tetramer), 20 nM 32P-DNA, 1 uM unlabelled competitor where used, 20 min at RT, native gel; a p53 369-383 peptide was synthesized for the EMSAs; buffer, salt and pH not in the material. The note with it: protein: recombinant; tags: untagged; chain copies: 4; label: none (unlabelled).

Series [2] concerns the target T1, p53rec. In words: EMSA; 0.4 uM p53 (0.1 uM tetramer), 20 nM DNA; EMSA: 0.4 uM p53 variant (0.1 uM tetramer), 20 nM 32P-DNA, 1 uM unlabelled competitor where used, 20 min at RT, native gel; a p53 369-383 peptide was synthesized for the EMSAs; buffer, salt and pH not in the material. The note with it: protein: recombinant; tags: untagged; chain copies: 4; label: 32P.

T1 sequence (P04637 whole entry): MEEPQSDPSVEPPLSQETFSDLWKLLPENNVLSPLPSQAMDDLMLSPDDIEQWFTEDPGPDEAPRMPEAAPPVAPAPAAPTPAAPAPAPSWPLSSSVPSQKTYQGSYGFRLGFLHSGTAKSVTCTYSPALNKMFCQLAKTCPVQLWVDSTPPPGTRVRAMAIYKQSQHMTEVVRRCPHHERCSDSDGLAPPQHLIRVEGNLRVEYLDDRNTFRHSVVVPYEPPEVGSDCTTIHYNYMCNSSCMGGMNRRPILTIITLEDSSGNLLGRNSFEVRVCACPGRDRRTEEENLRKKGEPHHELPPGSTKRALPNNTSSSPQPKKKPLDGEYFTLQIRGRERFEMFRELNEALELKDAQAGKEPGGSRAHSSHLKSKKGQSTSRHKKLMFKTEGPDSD

B1: randomized competitor (dsDNA)
DNA 1: CCACCATACCTTCGATTATCGCGCCCACTC
DNA 2: GAGTGGGCGCGATAATCGAAGGTATGGTGG
Turning to B1, the binding result in the series with p53rec [1] is given as “no binding”.

B2: GADD45 unlabelled competitor (dsDNA)
DNA 1: GTACAGAACATGTCTAAGCATGCTGGGGAC
DNA 2: GTCCCCAGCATGCTTAGACATGTTCTGTAC
As for B2, the binding result with p53rec [1] is recorded as “binds”.

B3: GADD45 target (dsDNA)
DNA 1: GTACAGAACATGTCTAAGCATGCTGGGGAC
DNA 2: GTCCCCAGCATGCTTAGACATGTTCTGTAC
For B3, the binding result with p53rec [2] is “binds”.
